Data as given in paper PMC12322040 (Nature Communications, 2025).
Values belong to the binder of their own block, whether it stands above or below them.

Experiments:
GST-GCK WT = target: T1, GST-GCK WT (human, UniProt P35557 1-465); assay: pull-down
T1 sequence (looked up): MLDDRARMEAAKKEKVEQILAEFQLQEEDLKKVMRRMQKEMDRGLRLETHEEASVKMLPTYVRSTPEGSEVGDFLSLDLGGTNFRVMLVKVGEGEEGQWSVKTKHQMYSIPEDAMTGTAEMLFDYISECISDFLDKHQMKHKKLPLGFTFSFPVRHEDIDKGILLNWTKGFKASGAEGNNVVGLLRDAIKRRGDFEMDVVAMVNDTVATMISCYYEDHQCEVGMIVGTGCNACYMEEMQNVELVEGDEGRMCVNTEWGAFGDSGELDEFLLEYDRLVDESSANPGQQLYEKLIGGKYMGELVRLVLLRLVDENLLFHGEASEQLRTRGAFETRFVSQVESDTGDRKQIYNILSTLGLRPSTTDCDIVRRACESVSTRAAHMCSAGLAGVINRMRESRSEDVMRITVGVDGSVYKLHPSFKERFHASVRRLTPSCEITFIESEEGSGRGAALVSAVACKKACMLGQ

His-GCK WT = target: T2, His-GCK WT (human, UniProt P35557 1-465); assay: pull-down
T2 sequence (looked up): T1 sequence (looked up)

- binding result (GST-GCK WT): binds
B1: His-CK2α (enzyme, human, UniProt P68400 1-391, looked up)
chain: MSGPVPSRARVYTDVNTHRPREYWDYESHVVEWGNQDDYQLVRKLGRGKYSEVFEAINITNNEKVVVKILKPVKKKKIKREIKILENLRGGPNIITLADIVKDPVSRTPALVFEHVNNTDFKQLYQTLTDYDIRFYMYEILKALDYCHSMGIMHRDVKPHNVMIDHEHRKLRLIDWGLAEFYHPGQEYNVRVASRYFKGPELLVDYQMYDYSLDMWSLGCMLASMIFRKEPFFHGHDNYDQLVRIAKVLGTEDLYDYIDKYNIELDPRFNDILGRHSRKRWERFVHSENQHLVSPEALDFLDKLLRYDHQSRLTAREAMEHPYFYTVVKDQARMGSSSMPGGSTPVSSANMMSGISSVPTPSPLGPLAGSPVIAAANPLGMPVPAAAGAQQ

- binding result (His-GCK WT): binds
B2: GST-CK2α WT phosphorylated by active His-ERK2 (enzyme, human, UniProt P68400 1-391, looked up)
chain: B1 chain
modifications: phosphothreonine at 360, phosphoserine at 362 (ERK-mediated)
